This is an account of results in the supplement of paper PMC10567573.

± gives the standard deviation.

The data set can be described thus: protein stability index of a GFP-peptide fusion (GPS, HEK-293T) (PSI 1-6); higher = more stable.
Setting [1] is: treatment: DMSO, c terminus: a fixed tail appended.
Where [2] appears, read: treatment: MLN4924 1 uM, 8 h, c terminus: a fixed tail appended.
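Note: 24-mer peptide tiles fused after GFP, lentivirally expressed, FACS-sorted into six equal bins by GFP/DsRed ratio, decoded by Illumina sequencing, PSI is the read-weighted mean bin number.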

Turning to DEVDDFEDFIFSHFFGDKALKKRS [PBXIP1], the protein stability index was 3.26 ± 0.23 under setting [1] and 3.29 ± 0.39 under setting [2].
The like results for DEVPGSQGSQASQAPPVPGPPPGA [NR2F2] were, in that order, 5.45 ± 0.23 and 5.604 ± 0.036.
In turn, DFGFAILGFAYAKEDKIMLDDRKN [MIA2] registered a protein stability index under setting [1] of 2.05 ± 0.26 and a protein stability index under setting [2] of 2.16 ± 0.48.
The like results for DFKSCPQGPQGREGLAFLVSCPEG [PWWP2B] were, in that order, 3.61 ± 0.15 and 3.75 ± 0.16.
The like results for DGLPLHFFIQTVRPKDTVMCYRVR [MYORG] were, in that order, 2.15 ± 0.43 and 2.24 ± 0.31.
Regarding DIKAEPQPLSPASSSYSVSSPRSV [ATF6], the protein stability index was determined as 4.61 ± 0.14 under setting [1] and 4.74 ± 0.44 under setting [2].
For DKFKRPTPPPSPNTQTPVQPPPPP [CCDC6], in that order: 5.03 ± 0.091 and 5.12 ± 0.16.
Regarding DKKTCTKIDYCASSNHGCQHECVN [MATN2], the protein stability index amounted to 4.11 ± 0.22 under setting [1] and 4.23 ± 0.13 under setting [2].
For DKPVTGPRNKTENGLTPKKKIQVN [ATF6], the protein stability index reads like this: under setting [1], 4.81 ± 0.31; under setting [2], 4.63 ± 0.32.
In the case of DKVLGTFEFDETSFWNSSHPRGWN [KLHDC2], the protein stability index is, setting by setting: under setting [1], 2.93 ± 0.45; under setting [2], 3.23 ± 0.61.
In the case of DLIDRGWRRSGKYVYKPVMNQTCC [ATE1], the protein stability index was 2.26 ± 0.14 under setting [1] and 2.23 ± 0.23 under setting [2].
As to DMRDPTYRPLKQELQGLDYCKPTR [SPSB1], the protein stability index runs as follows: under setting [1], 3.76 ± 0.59; under setting [2], 4.04 ± 0.55.
DNALWERDRNLLQEDKALWEEEKA [CCDC70]: the protein stability index was 5.57 ± 0.32 under setting [1] and 5.05 ± 0.31 under setting [2].
Regarding DNLGYRTGYPYRYPALREKSKKYS [ADD1], the protein stability index under setting [1] is 3.56 ± 0.13 and the protein stability index under setting [2] is 3.69 ± 0.1.
DPFDEIILFSLPPALDWDSVHVPG [PTPN9] had a protein stability index under setting [1] of 2.55 ± 0.29 and a protein stability index under setting [2] of 2.6 ± 0.19.
Turning to DPGVQELEALIDTIQKQLKDHSCK [EFHC1], the protein stability index reads like this: under setting [1], 3.93 ± 0.28; under setting [2], 3.97 ± 0.25.
The like results for DPQNGFDVNNLDPDLRSLFSRAGI [WAS] were, in that order, 3.93 ± 0.3 and 3.81 ± 0.32.
With DQLTQIMRTGQNTWESKNILAVSF [PCMTD1], the protein stability index was 2.21 ± 0.22 under setting [1] and 1.92 ± 0.36 under setting [2].
For the sequence DQWNILQTPILEGRSGPGCAVLDD [KLHL14], the protein stability index under setting [1] came to 4.37 ± 0.34 and the protein stability index under setting [2] is 4.16 ± 0.26.
For DQWTPIAAMLRGQSDVGVAVFENK [KLHL13], in that order: 3.53 ± 0.2 and 3.42 ± 0.2.
Consider DRPDLSLTVLPKLQARERGEEQVE [C2CD2L], for which the protein stability index was 5.37 ± 0.13 under setting [1] and 5.27 ± 0.16 under setting [2].
On to DRVILSSSTSCLMPSKLFAGLVHV [CRYL1], for which the protein stability index under setting [1] is 2.27 ± 0.64 and the protein stability index under setting [2] stood at 2.58 ± 0.49.
In the case of DSAELEPGSQTAVKNSNRYDVEMT [FBXO34], the protein stability index by setting is: under setting [1], 5.26 ± 0.2; under setting [2], 5.29 ± 0.2.
In turn, DSFVVQYEDTNGQPQALLVDGDQS [TNXB] showed a protein stability index under setting [1] of 5 ± 0.27 and a protein stability index under setting [2] of 4.83 ± 0.39.
Take DSLEKTDDDKYKITLKYPHYFPVM [NLN]: the protein stability index runs as follows: under setting [1], 2.73 ± 0.27; under setting [2], 2.7 ± 0.28.
For the sequence DTGVFAVVNSHSLSLLGKLTISAA [SLC22A15], the protein stability index came out at 2.5 ± 0.42 under setting [1] and 2.33 ± 0.53 under setting [2].
Consider DTLFERATNSSWVVVFKALVTTHH [SNAP91], for which the protein stability index reads like this: under setting [1], 2.62 ± 0.55; under setting [2], 2.71 ± 0.48.
In turn, DTNSIAKAIKARGEVIHCKLRAMK [STX11] yielded a protein stability index under setting [1] of 2.82 ± 0.29 and a protein stability index under setting [2] of 2.89 ± 0.23.
DVADDFENYHKLRRSSSKCIHDHH [NETO1] came in with a protein stability index under setting [1] of 3.85 ± 0.15 and a protein stability index under setting [2] of 4.15 ± 0.11.
In the case of DVLRGNDETIGFEDILNDPSQSEV [POMP], the protein stability index stood at 5.13 ± 0.092 under setting [1] and 5.21 ± 0.17 under setting [2].
As for DWFSGHLNFQIEHHLFPTMPRHNY [FADS1], the protein stability index was 2.15 ± 0.48 under setting [1] and 2.07 ± 0.25 under setting [2].
In the case of DWGTPRELTFSYIAFDGVVGSGGR [RTN2], the protein stability index reads like this: under setting [1], 1.91 ± 0.22; under setting [2], 2.43 ± 0.37.
For DYEAGTLSFYNVTDRSHIYTFTDT [TRIM39], in that order: 2.58 ± 0.38 and 2.69 ± 0.28.
Consider DYEKMFGTKCHGCDFKIDAGDRFL [PDLIM7], for which the protein stability index is, setting by setting: under setting [1], 2.92 ± 0.31; under setting [2], 2.96 ± 0.66.
For DYGVDPSQFSGTLMRTCERLVKEG [PPTC7], the protein stability index is 3.72 ± 0.42 under setting [1] and 3.79 ± 0.35 under setting [2].
For DYSRPLHISTFINELDSGFRLLNL [TSN], the protein stability index runs as follows: under setting [1], 2.11 ± 0.27; under setting [2], 2.21 ± 0.088.
In the case of EAAAAEEGLRELQRSRRLCHEDVE [DAPK3], the protein stability index is, setting by setting: under setting [1], 5.29 ± 0.23; under setting [2], 5.4 ± 0.45.
As for EAAGESLEEEIRRKQILLRGKLKK [ZC2HC1C], the protein stability index runs as follows: under setting [1], 4.87 ± 0.33; under setting [2], 4.59 ± 0.35.
For EAAKGGHTSVVCYLLDYPNNLLSA [ANKRD17], in that order: 2.02 ± 0.57 and 2.06 ± 0.47.
Consider EAAMAIASLNGYRLGERVLQVSFK [ELAVL3], for which the protein stability index is 2.24 ± 0.11 under setting [1] and 2.27 ± 0.17 under setting [2].
Consider EAELELLRQFDLAWQYGPCTGITR [POLD4], for which the protein stability index reads like this: under setting [1], 2.85 ± 0.3; under setting [2], 2.67 ± 0.3.
For the sequence EDDIRPDIKDDIYDPTYKDKEGPS [SCD], the protein stability index reads like this: under setting [1], 5.46 ± 0.39; under setting [2], 5.37 ± 0.34.
For the sequence EDKIFPVPEEPPVKKLMRTSTPPP [ZBED1], the protein stability index reads like this: under setting [1], 4.8 ± 0.27; under setting [2], 4.61 ± 0.34.
Consider EDLQSIIYKLEEHEEFFPAFQAFT [CEP70], for which the protein stability index is 2.38 ± 0.18 under setting [1] and 2.17 ± 0.31 under setting [2].
With EEAQPMAAPEGKRSLANGPNAGEQ [EID1], the protein stability index runs as follows: under setting [1], 5.16 ± 0.34; under setting [2], 5.48 ± 0.31.
As to EEDIQGPTKADTEKWAEGGGHSRE [CHGB], the protein stability index is, setting by setting: under setting [1], 5.52 ± 0.17; under setting [2], 5.38 ± 0.28.
As for EEELNFEKGETMEVIEKPENDPEW [NCK2], the protein stability index under setting [1] was 5.53 ± 0.32 and the protein stability index under setting [2] came out at 5.55 ± 0.5.
In the case of EEFIEEEDQEEEESTEGKEEGHQ [TRIM63], the protein stability index is, setting by setting: (treatment: DMSO, c terminus: native) 5.56 ± 0.41; (treatment: MLN4924 1 uM, 8 h, c terminus: native) 5.71 ± 0.27.
In the case of EEGVVGGLSGGALSPLRAASDPLL [TFE3], the protein stability index worked out at 4.33 ± 0.31 under setting [1] and 4.63 ± 0.4 under setting [2].
For EELEEDIRKKLKDSGDVSNVIEKV [RHOBTB3], the protein stability index reads like this: under setting [1], 5.37 ± 0.31; under setting [2], 5.5 ± 0.25.
In the case of EELSVLEVFEGREDSILGDPKKLL [MAGEA3], the protein stability index by setting is: under setting [1], 4.38 ± 0.28; under setting [2], 4.75 ± 0.23.
Consider EETEVLAHEIERLQMEMKEDDVSF [TRIM35], for which the protein stability index came to 5.43 ± 0.2 under setting [1] and 5.48 ± 0.094 under setting [2].
The like results for EFETLYNEHKSCEEKSVKNTSIRV [CLK3] were, in that order, 4.59 ± 0.36 and 4.77 ± 0.23.
As to EFGYNAETQKLLCKNGETLLGAVN [ARFIP2], the protein stability index is, setting by setting: under setting [1], 3.31 ± 0.042; under setting [2], 3.29 ± 0.38.
In the case of EFMLLPANQLIDIISSDELNVRSE [KLHL20], the protein stability index was 3.71 ± 0.37 under setting [1] and 3.38 ± 0.44 under setting [2].
For EFNGLKKMNPKLKTLLAIGGWNFS [CHIT1], the protein stability index under setting [1] stood at 2.44 ± 0.57 and the protein stability index under setting [2] worked out at 2.32 ± 0.34.
For EFPDFYDSEEPVSTHQEAENEKDR [CHGB], in that order: 5.68 ± 0.25 and 5.54 ± 0.24.
For EGPKRELGVRRPGGAGKEGVRVNN [TCF25], in that order: 4.7 ± 0.12 and 5.04 ± 0.16.
For the sequence EGVEIMLGVCASGLLIYRDRLRIN [EPB41L3], the protein stability index came to 2.75 ± 2.1 under setting [1] and 2.12 ± 0.2 under setting [2].
The like results for EHIKSLLIKNNSLPRKRQSLRSSS [INTS3] were, in that order, 3.29 ± 0.17 and 3.38 ± 0.25.
The like results for EHKETSRNLHSHYHEAPMTRKHYQ [POMT2] were, in that order, 4.09 ± 0.28 and 4.22 ± 0.2.
For EHNSSLVSQQTGSPGKQPGENSDC [ZNF8], the protein stability index worked out at 5.25 ± 0.3 under setting [1] and 5.39 ± 0.073 under setting [2].
With EHRVAGIFPRLSFKDKSTYIESST [CLPTM1], the protein stability index by setting is: under setting [1], 3.16 ± 0.2; under setting [2], 2.93 ± 0.29.
As to EILSSRASYSGKAADVWSLGVALF [TRIB3], the protein stability index was 2.52 ± 0.52 under setting [1] and 2.42 ± 0.39 under setting [2].
Take EIPERRDSGVGASLTRSNRHRLRW [DLC1]: the protein stability index is 4.17 ± 0.35 under setting [1] and 4.36 ± 0.32 under setting [2].
In the case of EKEIEEATKKLGFKHPVIGVHVRR [FUT8], the protein stability index is 3.99 ± 0.29 under setting [1] and 3.9 ± 0.51 under setting [2].
In turn, EKKVLEAGMGKVTSASFGEESTPG [HDAC6] showed a protein stability index under setting [1] of 5.21 ± 0.23 and a protein stability index under setting [2] of 5.18 ± 0.32.
Regarding EKLIQERSQQQEPLLCPSYQSYFK [KRT34], the protein stability index is, setting by setting: under setting [1], 3.36 ± 0.23; under setting [2], 3.41 ± 0.32.
Consider EKMEEEEQTCDPDSSLHWSSSYSP [ZNF396], for which the protein stability index by setting is: under setting [1], 5.3 ± 0.32; under setting [2], 5.56 ± 0.065.
For EKVLDQVETELQRRNEETPEEGQQ [GDAP1], the protein stability index worked out at 5.68 ± 0.14 under setting [1] and 5.64 ± 0.093 under setting [2].
Turning to ELARIVLLRHGMDRLWRPSKVLSL [RAB40B], the protein stability index was 2.54 ± 0.67 under setting [1] and 2.43 ± 0.75 under setting [2].
As for ELDEEEVKAATTEPTEVEEVVPAL [BCL2L13], the protein stability index is 5.44 ± 0.28 under setting [1] and 5.54 ± 0.13 under setting [2].
